Data reported in patent US11091559B2, “Anti-ALK antibodies and methods for use thereof” (Celldex Therapeutics, Inc., priority 2015, dated 2021).

Experiments:
[1] = biological target: murine ALK (purified mouse ALK antigen) (Mus musculus, UniProt P97793); experiment: Mouse ALK cross-reactivity, solid-state ELISA; assay type: binding; set-up: key: − none; + weak; ++ moderate; +++ strong; details: cross-reactivity with murine ALK
Description: Purified mAbs were evaluated for their ability to bind murine ALK by solid-state ELISA, or flow cytometry on Neuro-2a cells that express low levels of endogenous murine ALK. […]

[2] = tested on: ALK (total protein levels in NB1 cells); experiment: ALK turnover (total protein levels) by Western blot, 24 hour treatment of NB1 cells; assay type: cell-based, human; set-up: key: − none; + weak; ++ moderate; +++ strong
Description: FIG. 5 depicts a Western blot of a panel of ALK antibodies.
See also Table 18, below.

[3] = tested on: ALK (basal phosphorylation in NB1 cells); experiment: Western blot of ALK phosphorylation in NB1 cells; assay type: cell-based, human; details: for ALK phosphorylation: effect in words
Description: Lysed cells were subjected to SDS-PAGE, transferred to nitrocellulose and immunoblotted with antibodies against total, and phospho-specific ALK, AKT, and MAPK. FIG. 4B depicts an ELISA of NB1 cells grown in media with reduced serum and treated with 30-100 nM of each antibody for 1-2 hours. Cell lysates were incubated on ELISA plates with an anti-ALK antibody, followed by incubation with a pan phosphotyrosine antibody coupled to HRP.
Cell lysates were subjected to SDS-PAGE and transferred to nitrocellulose. Immunoblotting was performed with antibodies against total, and phospho-specific ALK, AKT, and MAPK (purchased from Cell Signaling and utilized per manufacturer's instructions). HRP (horse radish peroxidase)-conjugated secondary antibodies (Thermo Scientific, Waltham, Mass.) were used along with Supersignal West Pico Chemiluminescent Substrate (Thermo Scientific, Waltham, Mass.) to image blots.
Anti-ALK monoclonal antibodies generated in Example 1 were evaluated via Western blotting for their ability to activate or inhibit basal levels of ALK phosphorylation in NB1 cells (FIG. 4A). A subset of ALK antibodies stimulated ALK tyrosine phosphorylation and a different subset of antibodies inhibited basal levels of ALK phosphorylation. See also Table 18, below. […] That is, ALK antibodies that stimulated ALK tyrosine phosphorylation increased MAPK and AKT phosphorylation, whereas ALK antibodies that inhibited ALK tyrosine phosphorylation decreased basal levels of MAPK and AKT phosphorylation (FIG. 4A). Similar results were obtained in ELISA-based ALK phosphorylation assays from lysates of NB1 cells treated with ALK antibodies (FIG. 4B).

[4] = biological target: C-terminal region of human ALK ECD (T637-S1038) (Homo sapiens, UniProt Q9UM73); experiment: Competitive binding assay (epitope binning) by flow cytometry; details: antibodies to the C-terminal region
Description: Antibodies that bind to the C-terminal region of human ALK ECD (T637-S1038) were further characterized using a competitive binding assay. A pairwise matrix approach was used whereby each antibody was fluorescently labeled and tested for its ability to bind to ALK-expressing cells pre-incubated with an unlabeled antibody. The ability of both antibodies to bind the C-terminal domain simultaneously was tested via flow cytometry. If both antibodies bound simultaneously, they were put into different bins and considered to belong to a separate epitope class.

NB1 cells = experiment: Crizotinib titration and co-titration with ALK antibodies, killing of NB1 cells; assay type: cell-based, human
[5] = biological target: human ALK (hALK, purified ALK protein) (Homo sapiens, UniProt Q9UM73); experiment: Monovalent affinity of humanized antibodies, BLitz System, human ALK; assay type: binding; details: for Kd: BLitz, purified ALK protein at 70 μg/mL, single binding site fit, antibody by plate position of Table 19; for potency estimated from few doses: single dose kinetics
Description: The humanized ALK antibodies designed in Example 1 were tested for monovalent affinity, wherein the kinetic data are fit to a single binding site equation to obtain relative affinity values.
(§1) Kinetic measurements of the monovalent affinity of the 96 humanized ALK antibody variants (Ab351-Ab446) were collected. Affinity ranking was performed using a BLitz® System (ForteBio, Menlo Park, Calif.). Humanized anti-ALK antibodies were immobilized at 0.5 mg/mL using Protein A tips. Once baseline stability was ensured, purified ALK proteins at 70 μg/mL were added. The resulting kinetic data were fit to a single binding site equation, from which the quoted monovalent KD values were derived.
(§2) Amino acid residues that differ between rat ALK and mouse ALK are boxed. KD values for both NB1 (human) cells and Neuro2a (mouse) cells were also determined.

[6] = biological target: T1, cell surface mALK on Neuro2a cells (Mus musculus, UniProt P97793); experiment: KD of humanized antibodies on Neuro2a (mouse) cells; assay type: binding; details: FACS, mean
T1 construct: Neuro-2a cells that express low levels of endogenous murine ALK; endogenous in cells; host or cells: Neuro-2a (Neuro2a) mouse neuroblastoma cells
Description: as §2

[7] = tested on: ALK on the surface of NB1 cells; experiment: KD determination by flow cytometry on NB1 cells; assay type: binding; details: NB1 (human) cells, FACS, mean
Description: FIG. 3 depicts the apparent affinities (KD) of ALK antibodies for ALK expression on the surface of NB1 cells. KD was determined by flow cytometry. Titration of each antibody on NB1 cells for 2-4 hours at 4° C. was followed by incubation with a fluorescently-labeled secondary antibody. The normalized mean fluorescent intensity […] shown as “% Max binding” was plotted as a function of antibody concentration.
Flow cytometry was utilized to measure the affinity at steady state (KD) with which different ALK antibodies bind to ALK on the surface of NB1 cells (FIG. 3). Titration of each antibody on NB1 cells for 2-4 hours at 4° C. was followed by incubation with a fluorescently-labeled secondary antibody. The normalized mean fluorescent intensity (MFI) shown as “% Max binding” was plotted as a function of antibody concentration. The data were fit to a one site binding isotherm using GraphPad Prism, from which affinity values were derived.
as §2

mouse ALK (mALK) = biological target: T2, mouse ALK (mALK) (Mus musculus, UniProt P97793); experiment: Monovalent affinity of humanized antibodies, BLitz System, mouse ALK; assay type: binding; details: single dose kinetics
T2 construct: mouse ALK (mALK)
Description: as §1, §2

T1 sequence (P97793 19-1621): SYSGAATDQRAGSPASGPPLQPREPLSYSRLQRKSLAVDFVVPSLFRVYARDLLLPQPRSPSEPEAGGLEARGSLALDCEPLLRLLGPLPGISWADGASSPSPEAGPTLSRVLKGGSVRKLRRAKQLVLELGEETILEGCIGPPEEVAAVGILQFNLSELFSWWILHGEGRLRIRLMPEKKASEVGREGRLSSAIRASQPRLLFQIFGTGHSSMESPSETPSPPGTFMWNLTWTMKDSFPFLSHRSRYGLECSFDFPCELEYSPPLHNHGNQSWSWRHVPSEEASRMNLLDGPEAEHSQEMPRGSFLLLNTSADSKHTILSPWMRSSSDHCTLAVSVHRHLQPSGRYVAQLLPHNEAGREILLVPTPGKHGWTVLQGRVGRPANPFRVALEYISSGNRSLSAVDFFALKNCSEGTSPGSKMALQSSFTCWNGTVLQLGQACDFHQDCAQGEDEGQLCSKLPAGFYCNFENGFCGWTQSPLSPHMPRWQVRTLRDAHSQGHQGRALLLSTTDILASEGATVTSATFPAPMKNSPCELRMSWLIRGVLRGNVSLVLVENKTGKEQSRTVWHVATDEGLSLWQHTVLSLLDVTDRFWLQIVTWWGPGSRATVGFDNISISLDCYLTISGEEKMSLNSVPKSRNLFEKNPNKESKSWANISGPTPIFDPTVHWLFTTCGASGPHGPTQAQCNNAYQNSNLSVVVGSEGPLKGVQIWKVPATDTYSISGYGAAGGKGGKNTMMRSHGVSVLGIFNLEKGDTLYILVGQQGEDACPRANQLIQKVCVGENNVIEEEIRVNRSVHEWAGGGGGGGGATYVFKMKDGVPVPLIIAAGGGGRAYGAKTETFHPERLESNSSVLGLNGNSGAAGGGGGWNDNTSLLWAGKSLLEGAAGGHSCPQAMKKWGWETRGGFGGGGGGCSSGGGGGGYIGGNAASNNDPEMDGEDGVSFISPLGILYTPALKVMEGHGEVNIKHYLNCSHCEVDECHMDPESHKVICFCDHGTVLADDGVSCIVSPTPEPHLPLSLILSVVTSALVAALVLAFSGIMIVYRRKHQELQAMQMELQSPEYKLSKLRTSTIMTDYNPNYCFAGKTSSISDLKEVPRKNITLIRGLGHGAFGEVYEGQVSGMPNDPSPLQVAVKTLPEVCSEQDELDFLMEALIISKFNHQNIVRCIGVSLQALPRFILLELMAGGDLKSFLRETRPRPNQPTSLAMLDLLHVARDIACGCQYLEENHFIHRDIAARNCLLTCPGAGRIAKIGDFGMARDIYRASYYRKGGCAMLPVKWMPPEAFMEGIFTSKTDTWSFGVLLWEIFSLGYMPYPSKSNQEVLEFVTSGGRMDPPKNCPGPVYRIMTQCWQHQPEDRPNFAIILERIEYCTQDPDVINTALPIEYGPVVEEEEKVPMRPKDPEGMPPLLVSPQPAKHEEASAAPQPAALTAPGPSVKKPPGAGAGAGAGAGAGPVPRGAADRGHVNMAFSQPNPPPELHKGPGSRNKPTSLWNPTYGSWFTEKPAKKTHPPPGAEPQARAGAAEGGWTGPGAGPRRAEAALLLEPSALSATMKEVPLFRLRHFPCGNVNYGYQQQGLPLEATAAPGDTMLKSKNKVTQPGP
Sequence of human ALK (hALK, purified ALK protein) (Q9UM73 with tags, fused parts or gaps): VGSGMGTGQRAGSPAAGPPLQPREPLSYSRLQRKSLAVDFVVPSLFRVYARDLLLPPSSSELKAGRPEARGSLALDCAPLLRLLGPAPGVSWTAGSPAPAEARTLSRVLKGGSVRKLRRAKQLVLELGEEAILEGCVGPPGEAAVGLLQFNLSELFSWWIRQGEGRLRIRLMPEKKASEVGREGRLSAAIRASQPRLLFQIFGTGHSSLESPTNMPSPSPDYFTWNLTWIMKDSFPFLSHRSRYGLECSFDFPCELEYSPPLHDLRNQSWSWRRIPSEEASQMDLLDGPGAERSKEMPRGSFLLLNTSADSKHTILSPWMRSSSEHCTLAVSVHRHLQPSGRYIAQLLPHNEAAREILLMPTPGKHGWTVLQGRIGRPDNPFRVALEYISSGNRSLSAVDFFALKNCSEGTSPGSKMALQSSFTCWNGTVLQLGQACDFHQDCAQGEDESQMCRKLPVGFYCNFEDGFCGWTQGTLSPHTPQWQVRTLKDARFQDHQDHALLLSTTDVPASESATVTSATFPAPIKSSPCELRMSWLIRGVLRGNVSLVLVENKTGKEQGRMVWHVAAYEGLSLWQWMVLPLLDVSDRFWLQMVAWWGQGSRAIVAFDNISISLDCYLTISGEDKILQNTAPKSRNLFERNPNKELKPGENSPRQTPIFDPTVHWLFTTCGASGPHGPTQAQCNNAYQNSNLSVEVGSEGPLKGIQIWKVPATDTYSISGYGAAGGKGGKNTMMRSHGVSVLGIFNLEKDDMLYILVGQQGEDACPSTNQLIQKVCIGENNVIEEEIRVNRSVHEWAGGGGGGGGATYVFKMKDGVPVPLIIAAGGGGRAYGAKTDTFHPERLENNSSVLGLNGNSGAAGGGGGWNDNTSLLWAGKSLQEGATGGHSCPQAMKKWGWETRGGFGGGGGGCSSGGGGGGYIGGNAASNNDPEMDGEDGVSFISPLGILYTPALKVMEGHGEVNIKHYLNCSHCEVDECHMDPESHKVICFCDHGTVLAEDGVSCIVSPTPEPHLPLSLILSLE
Sequence of C-terminal region of human ALK ECD (T637-S1038) (Q9UM73 19-1620): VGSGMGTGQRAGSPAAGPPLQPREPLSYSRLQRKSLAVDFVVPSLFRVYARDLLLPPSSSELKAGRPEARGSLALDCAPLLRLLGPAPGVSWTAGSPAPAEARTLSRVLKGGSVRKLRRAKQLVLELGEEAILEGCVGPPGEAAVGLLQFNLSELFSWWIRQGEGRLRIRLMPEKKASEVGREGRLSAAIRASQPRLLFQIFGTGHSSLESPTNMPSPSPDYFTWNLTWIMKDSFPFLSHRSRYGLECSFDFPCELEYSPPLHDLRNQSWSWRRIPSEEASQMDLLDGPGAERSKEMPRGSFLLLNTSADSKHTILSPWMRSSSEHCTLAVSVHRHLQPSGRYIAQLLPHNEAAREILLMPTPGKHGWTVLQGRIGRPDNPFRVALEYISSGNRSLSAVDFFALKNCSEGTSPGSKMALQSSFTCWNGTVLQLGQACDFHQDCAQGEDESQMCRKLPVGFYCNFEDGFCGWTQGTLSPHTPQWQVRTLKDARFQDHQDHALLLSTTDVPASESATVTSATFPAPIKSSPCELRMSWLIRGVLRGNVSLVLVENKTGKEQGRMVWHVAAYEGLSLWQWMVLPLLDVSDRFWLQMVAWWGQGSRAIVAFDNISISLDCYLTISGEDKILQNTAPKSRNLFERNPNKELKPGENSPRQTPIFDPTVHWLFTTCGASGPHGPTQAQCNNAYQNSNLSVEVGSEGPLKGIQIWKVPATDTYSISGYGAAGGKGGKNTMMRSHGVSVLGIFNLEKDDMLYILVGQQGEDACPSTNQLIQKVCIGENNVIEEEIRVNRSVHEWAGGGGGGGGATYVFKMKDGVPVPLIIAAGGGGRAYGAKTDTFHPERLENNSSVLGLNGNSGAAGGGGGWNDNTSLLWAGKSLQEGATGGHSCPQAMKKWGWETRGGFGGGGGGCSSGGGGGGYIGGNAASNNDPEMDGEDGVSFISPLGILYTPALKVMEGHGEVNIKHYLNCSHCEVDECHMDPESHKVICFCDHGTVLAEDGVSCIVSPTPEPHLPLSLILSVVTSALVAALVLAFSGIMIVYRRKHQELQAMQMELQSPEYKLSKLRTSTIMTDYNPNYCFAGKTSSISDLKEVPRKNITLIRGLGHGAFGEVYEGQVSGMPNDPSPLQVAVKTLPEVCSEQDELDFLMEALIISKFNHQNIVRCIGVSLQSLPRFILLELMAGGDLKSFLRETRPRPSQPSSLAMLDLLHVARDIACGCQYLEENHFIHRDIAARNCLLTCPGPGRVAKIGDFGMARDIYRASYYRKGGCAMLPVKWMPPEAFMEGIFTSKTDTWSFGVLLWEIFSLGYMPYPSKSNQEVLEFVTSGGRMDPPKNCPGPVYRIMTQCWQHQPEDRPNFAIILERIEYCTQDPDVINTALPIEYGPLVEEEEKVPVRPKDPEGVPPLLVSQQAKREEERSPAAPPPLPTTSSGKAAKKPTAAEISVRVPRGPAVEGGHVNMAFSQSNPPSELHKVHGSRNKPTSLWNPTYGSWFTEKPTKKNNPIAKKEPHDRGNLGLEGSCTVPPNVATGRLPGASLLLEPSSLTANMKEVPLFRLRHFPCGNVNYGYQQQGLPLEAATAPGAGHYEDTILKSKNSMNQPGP

mouse ALK binding [1] | Bin/Domain (bin) [4] | Kd [5] | potency estimated from few doses [5] | Kd [6] | potency estimated from few doses (mouse ALK (mALK)) | Molecule | ALK turnover [2] | effect on ALK activity (ALK inhibitory or ALK agonistic antibody) [3] | ALK phosphorylation [3] | effect on NB1 cell death caused by crizotinib (NB1 cells; constant amount of antibody added to crizotinib titration) | effect on the anti-proliferative effect of crizotinib (NB1 cells; co-titration of crizotinib with the antibody) | Kd [7]
+++ | 1 |  |  |  |  | Ab323: anti-ALK monoclonal antibody; VL SEQ ID NO: 401, VH SEQ ID NO: 402 (antibody, V domains shown, VH domain - Ab323; VL domain - Ab323) VH: QVQLQQSGAELVKPGASVKISCKTSGYTFSNYWMNWVKQRPGKGLEWIGQIFPGDADANYNGKFKGKATLTADKSSSAAFMQLSSLTSEDSAVYFCARFSYDGAFAYWGQGTLVTVS VL: DIVMTQSHKFMSTSVGDRVSITCKASQDVSTAVAWYQQKPGQSPKPLIYWASTRHTGVPDRFTGSGSGTDYTLTISSVQTEDLALYYCQQHYSTPRTFGGGTKLEIKR | ++ | agonistic | weak agonist | partially rescued |  | 
 |  | 87.6 nM | 71 nM | 2.8 nM | 147 nM | Ab402: humanized anti-ALK antibody; VL SEQ ID NO: 425, VH SEQ ID NO: 432 (antibody, V domains shown, VH domain - Ab354; VL domain - Ab399) VH: EVQLVQSGAEVKKPGTSVKLSCKASGYTFTSYWMHWVRQARGQRLEWIGYIKPSSGYTKYAQKFQERVTLTADKSTSTAYMELSSLRSEDTAVYYCARDYYGSSSWFAYWGQGTLVTVSS VL: EIVMTQSQATMSTSVGERATLSCKASQNVGTNVAWYQQKPGQSPKALIYSASYRYSGVPARFSGSGSGTDFTLTISSVEPEDFAVYYCQQYNSYPYMYTFGQGTKLEIK |  |  |  |  |  | 1.5 nM

Continued, molecule first:

Molecule | mouse ALK binding [1] | Bin/Domain (bin) [4] | Kd [5] | potency estimated from few doses [5] | Kd [6] | potency estimated from few doses (mouse ALK (mALK)) | ALK turnover [2] | effect on ALK activity (ALK inhibitory or ALK agonistic antibody) [3] | ALK phosphorylation [3] | effect on NB1 cell death caused by crizotinib (NB1 cells; constant amount of antibody added to crizotinib titration) | effect on the anti-proliferative effect of crizotinib (NB1 cells; co-titration of crizotinib with the antibody) | Kd [7]
Ab327: anti-ALK monoclonal antibody; VL SEQ ID NO: 409, VH SEQ ID NO: 410 (antibody, V domains shown, VH domain - Ab327; VL domain - Ab327) VH: DVKLVESGEGLVKPGGSLKLSCAASGFTFSSYAMSWVRQTPEKRLEWVTYISSGGDYIYYADTVKGRFTISRDNARNTLYLQMSSLKSEDTAMYYCTRERIWLRRFFDVWGTGTTVTVSS VL: DIVMTQSQKFMSTSVGDRVSITCKASQNVGTAVAWYQLKPGQSPKLLIYSASNRFTGVPDRFTGSGSGTDFTLTISNMQSEDLADYFCQQYSSYPLTFGSGTKLEIKR | +++ | 2 |  |  |  |  | ++ | inhibitory | inhibitor |  | enhanced | 
Ab400: humanized anti-ALK antibody; VL SEQ ID NO: 425, VH SEQ ID NO: 430 (antibody, V domains shown, VH domain - Ab352; VL domain - Ab399) VH: EVQLVQSGPEVKKPGTSVKLSCKASGYTFTSYWMHWVRQARGQRLEWIGYIKPSSGYTKYNQKFKDRATLTADKSTSTAYMELSSLRSEDTAVYYCARDYYGSSSWFAYWGQGTLVTVSS VL: EIVMTQSQATMSTSVGERATLSCKASQNVGTNVAWYQQKPGQSPKALIYSASYRYSGVPARFSGSGSGTDFTLTISSVEPEDFAVYYCQQYNSYPYMYTFGQGTKLEIK |  |  | 81.5 nM | 59 nM | 7.4 nM |  |  |  |  |  |  | 1.3 nM
Ab352: humanized anti-ALK antibody; VL SEQ ID NO: 421, VH SEQ ID NO: 430 (antibody, V domains shown, VH domain - Ab352; VL domain - Ab351) VH: EVQLVQSGPEVKKPGTSVKLSCKASGYTFTSYWMHWVRQARGQRLEWIGYIKPSSGYTKYNQKFKDRATLTADKSTSTAYMELSSLRSEDTAVYYCARDYYGSSSWFAYWGQGTLVTVSS VL: EIVMTQSPAFLSVTPGEKVTITCKASQNVGTNVAWYQQKPDQAPKALIYSASYRYSGVPSRFSGSGSGTDFTLTISSLEAEDAATYYCQQYNSYPYMYTFGQGTKLEIK |  |  |  |  | 7.7 nM |  |  |  |  |  |  | 1.4 nM
Ab403: humanized anti-ALK antibody; VL SEQ ID NO: 425, VH SEQ ID NO: 433 (antibody, V domains shown, VH domain - Ab355; VL domain - Ab399) VH: QVQLVQSGAEVAKPGASVKLSCKASGYTFTSYWMHWVKQAPGQGLEWIGYIKPSSGYTKYNQKFKDKATLTADKSTSTAYMELRSLRSDDTAVYYCARDYYGSSSWFAYWGQGTLVTVSS VL: EIVMTQSQATMSTSVGERATLSCKASQNVGTNVAWYQQKPGQSPKALIYSASYRYSGVPARFSGSGSGTDFTLTISSVEPEDFAVYYCQQYNSYPYMYTFGQGTKLEIK |  |  | 94.2 nM | 80 nM | 4.15 nM | 120 nM |  |  |  |  |  | 0.73 nM
Ab355: humanized anti-ALK antibody; VL SEQ ID NO: 421, VH SEQ ID NO: 433 (antibody, V domains shown, VH domain - Ab355; VL domain - Ab351) VH: QVQLVQSGAEVAKPGASVKLSCKASGYTFTSYWMHWVKQAPGQGLEWIGYIKPSSGYTKYNQKFKDKATLTADKSTSTAYMELRSLRSDDTAVYYCARDYYGSSSWFAYWGQGTLVTVSS VL: EIVMTQSPAFLSVTPGEKVTITCKASQNVGTNVAWYQQKPDQAPKALIYSASYRYSGVPSRFSGSGSGTDFTLTISSLEAEDAATYYCQQYNSYPYMYTFGQGTKLEIK |  |  |  |  | 5.1 nM |  |  |  |  |  |  | 1.26 nM
